For the test, the target named is Cy3-labeled human histone nucleosome core particle reconstituted on the Widom 601 sequence (human) (UniProt P62807). As to the kind of experiment: single-molecule fluorescence imaging on optical tweezers.

This is an account of results in PMC12748704.

As for “HaloTag-635-LIG3α (wild type, nuclear DNA ligase IIIα) (enzyme)”, the lifetime was found to be 24 s.
